Results as given in patent US20240148841.

Target: human IgG (of human serum; IgG against AAV8 in AAV8 positive human serum pools CP16 and P1)

B1: IdeSORK (Xork) IgG protease (protein)
chain: LSKRKLLKKIEKKDTSSVLTQKKQTKTLWADGVQVDDKDFKPSTENFGTNYLAAEYGIGKGYYDINKKFDGTDDDLCSGVVAANQLHWWLDRNKDYIEKYRQQSKDNGVTIGNTDIFELNKLHDEDQSNFFDFIKKSFGNKFLQPERLLNMYINGYGYLTSQDKAKTSQPSPSKLNFFQKVFKNNLLTDKTPINDIDEFSSQTKNALQNHKVLAVSFASIKNRGLGHVVTVWGADFDENGKVVALYVTDSDDRSKNIGNAKLGMKKLRIEVSAQDSSTIKLTGFEDKNSGGSLRHLYSLSTGEQIWKKYFEETEKERIRLEEEADKAKLEQDRIQKEAEEKLALEKAEKERIRLEEEADKAKLEQDRIQKEAEEKLALEKAEKERIRLEEEADKAKLEQDRIQKEAEEKLALEKAEKERIRLEEEADKAKLEQDRIQKEAEEKLALEKAEKERIRLEEEAAKAKLEQEKQIATAPQPDKKQENTTSEQEKPAPTELPPLVNKADETETPRETAPDQTPSATNTFRKILPKMNAVSQFFSQLMGTIQIVFAFILKIFK
  cleavage of human IgG in vitro: Xork cleaves human IgG in vitro with the same specificity and mechanism as IdeS
